Experimental data taken from patent US20210145976A1 (ARO BIOTHERAPEUTICS, published 2021).
Residue numbers refer to the chain shown, from its start.

B1: SEQ ID NO 223 (designed binder)
chain: MLPAPKNLVVSRVTEDSARLSWTAPDAAFDSFTIWYAEALGDGEAIVLTVPGSERSYDLTGLKPGTEYFVDIPGVKGGTRSSPLSAISTT
notes: FN3 domain
B2: SEQ ID NO 258 (designed binder)
chain: MLPAPKNLVVSRVTEDSARLSWTAPDAAFDSFFIPYAEPSPTGEAIVLTVPGSERSYDLTGLKPGTEYDVWIEGVKGGVLSWPLSAIFTT
notes: FN3 domain
B3: SEQ ID NO 250 (designed binder)
chain: B2 chain with P35G, A37L, S40Y, T42P, D69A, W71E, E73A, V79L, W82S, F88S
notes: FN3 domain
B4: SEQ ID NO 256 (designed binder)
chain: B2 chain with F33H, P35V, A37H, S40R, T42S, D69E, W71G, E73V, V79D, W82V
notes: FN3 domain
B5: SEQ ID NO 285 (designed binder)
chain: B2 chain with F33L, P39T, T42S, D69S, W71L, E73H, V79D, L80Y, W82S
notes: FN3 domain
B6: SEQ ID NO 228 (designed binder)
chain: MLPAPKNLVVSRVTEDSARLSWTAPDAAFDSFEIYYVEWSEAGEAIVLTVPGSERSYDLTGLKPGTEYRVEIRGVKGGSWSSPLSAIFTT
notes: FN3 domain
B7: SEQ ID NO 263 (designed binder)
chain: MLPAPKNLVVSRVTEDSARLSWTAPDAAFDSFFIGYLEPQPPGEAIVLTVPGSERSYDLTGLKPGTEYNVTIQGVKGGFPSMPLSAISTT
notes: FN3 domain
B8: SEQ ID NO 276 (designed binder)
chain: MLPAPKNLVVSRVTEDSARLSWTAPDAAFDSFRIDYLELTSLGEAIVLTVPGSERSYDLTGLKPGTEYPVPILGVKGGLSSWPLSAIFTT
notes: FN3 domain
B9: SEQ ID NO 279 (designed binder)
chain: MLPAPKNLVVSRVTEDSARLSWTAPDAAFDSFSIEYYESVGLGEAIVLTVPGSERSYDLTGLKPGTEYDVSIYGVKGGYLSRPLSAIFTT
notes: FN3 domain
B10: SEQ ID NO 254 (designed binder)
chain: B2 chain with D69S, W71L, E73H, V79H, W82D, F88S
notes: FN3 domain
B11: SEQ ID NO 236 (designed binder)
chain: B9 chain with S33W, S39E, V40L, L42S, D69R, S71Y, L80P, R82S
notes: FN3 domain
B12: SEQ ID NO 305 (designed binder)
chain: MLPAPKNLVVSRVTEDSARLSWTAPDAAFDSFEIDYDEPFVYGEAIVLTVPGSERSYDLTGLKPGTEYRVFIFGVKGGNGSWPLSAIFTT
notes: FN3 domain
B13: SEQ ID NO 264 (designed binder)
chain: B8 chain with D35K, L37Q, L39W, T40W, S41V, L42E, P69V, P71Q, L73A, W82Y
notes: FN3 domain
B14: SEQ ID NO 288 (designed binder)
chain: B2 chain with F33L, P39T, T42S, D69S, W71L, E73H, V79D, L80Y, W82S, F88S
notes: FN3 domain
B15: SEQ ID NO 272 (designed binder)
chain: B2 chain with F33G, P39S, S40T, D69S, W71L, E73H, V79H, W82D
notes: FN3 domain
B16: SEQ ID NO 275 (designed binder)
chain: MLPAPKNLVVSRVTEDSARLSWTAPDAAFDSFLIAYAEVTLHGEAIVLTVPGSERSYDLTGLKPGTEYSVLIHGVKGGRNSDPLSAIFTT
notes: FN3 domain
B17: SEQ ID NO 255 (designed binder)
chain: B9 chain with S33D, S39L, V40I, L42R, D69W, S71G, Y79W
notes: FN3 domain
B18: SEQ ID NO 267 (designed binder)
chain: B2 chain with F33P, P35V, A37S, P39I, S40H, P41V, T42I, V79H, W82E
notes: FN3 domain
B19: SEQ ID NO 240 (designed binder)
chain: B2 chain with F33R, P35K, A37L, P39W, S40W, P41L, T42G, D69W, W71D, E73Q
notes: FN3 domain
B20: SEQ ID NO 293 (designed binder)
chain: B9 chain with S33T, Y37W, S39F, V40T, L42S, Y79W, R82Y
notes: FN3 domain
B21: SEQ ID NO 265 (designed binder)
chain: MLPAPKNLVVSRVTEDSARLSWTAPDAAFDSFWIYYIETSHQGEAIVLTVPGSERSYDLTGLKPGTEYFVLIKGVKGGYDSVPLSAIFTT
notes: FN3 domain
B22: SEQ ID NO 245 (designed binder)
chain: MLPAPKNLVVSRITEDSARLSWTAPDAAFDSFGIAYNEGDHYGEAIVLTVPGSERSYDLTGLKPGTEYSVWIEGVKGGNLSYPLSAIFTT
notes: FN3 domain
B23: SEQ ID NO 246 (designed binder)
chain: B22 chain with I13V, G33T, G39Q, D40N, S69G, N79T, Y82W
notes: FN3 domain
B24: SEQ ID NO 306 (designed binder)
chain: B9 chain with S33Y, Y37F, S39T, V40Q, L42Y, D69Y, S71A
notes: FN3 domain
B25: SEQ ID NO 300 (designed binder)
chain: B7 chain with Q73H, F79T, S88F
notes: FN3 domain
B26: SEQ ID NO 298 (designed binder)
chain: B16 chain with L33P, V39P, T40R, L41P, H42D, R79L, N80L, D82S, F88S
notes: FN3 domain
B27: SEQ ID NO 268 (designed binder)
chain: B2 chain with F33T, P35V, A37G, P39A, S40G, P41A, T42F, W71L, V79N
notes: FN3 domain
B28: SEQ ID NO 283 (designed binder)
chain: B16 chain with L33P, V39P, T40R, L41P, H42D, R79L, N80L, D82S
notes: FN3 domain
B29: SEQ ID NO 243 (designed binder)
chain: MLPAPKNLVVSRVTEDSARLSWTAPDAAFDSFAIPYYEWVNHGEAIVLTVPGSERSYDLTGLKPGTEYPVGIDGVKGGGPSWPLSAIFTT
notes: FN3 domain
B30: SEQ ID NO 304 (designed binder)
chain: B9 chain with S33I, E35T, Y37W, S39H, L42D, D69F, S71E, R82K
notes: FN3 domain
B31: SEQ ID NO 251 (designed binder)
chain: B7 chain with S88V
notes: FN3 domain
B32: SEQ ID NO 282 (designed binder)
chain: B2 chain with F33A, P35V, A37H, S40R, T42D, D69E, W71V, E73L, L80H, W82Y
notes: FN3 domain
B33: SEQ ID NO 289 (designed binder)
chain: B29 chain with W39D, V40T, H42D, P69W, G71S, D73Q, G79T, P80V, W82G
notes: FN3 domain
B34: SEQ ID NO 262 (designed binder)
chain: B9 chain with S33A, Y37F, S39Y, V40T, L42E, D69Y, S71G
notes: FN3 domain
B35: SEQ ID NO 287 (designed binder)
chain: B9 chain with S33T, Y37H, V40G, G41P, L42V, D69M, S71W, Y73F, Y79F, L80V
notes: FN3 domain
B36: SEQ ID NO 295 (designed binder)
chain: B7 chain with Q40I, P42S, N69P, T71V, F79H, M82Q, S88F
notes: FN3 domain
B37: SEQ ID NO 271 (designed binder)
chain: B16 chain with L33Y, A35P, V39T, T40R, L41D, H42D, R79D, N80L, D82S
notes: FN3 domain
B38: SEQ ID NO 81 (designed binder)
chain: MLPAPKNLVVSRVTEDSARLSWTAPDAAFDSFVIEYREGAWYGEAIVLTVPGSERSYDLTGLKPGTEYAVYIPGVKGGPRSFPLSAIFTT
notes: FN3 domain

Target: T1, recombinant biotinylated CD71 extracellular domain (Sino Biologics) with an N-terminal 6His tag (human, UniProt P02786 89-760, biotinylated (sites not given))
T1 construct: extracellular domain; also called hCD71; huCD71
Assay: screening ELISA, ratio

T1 sequence (P02786 other isoform, or with tags, fused parts or gaps): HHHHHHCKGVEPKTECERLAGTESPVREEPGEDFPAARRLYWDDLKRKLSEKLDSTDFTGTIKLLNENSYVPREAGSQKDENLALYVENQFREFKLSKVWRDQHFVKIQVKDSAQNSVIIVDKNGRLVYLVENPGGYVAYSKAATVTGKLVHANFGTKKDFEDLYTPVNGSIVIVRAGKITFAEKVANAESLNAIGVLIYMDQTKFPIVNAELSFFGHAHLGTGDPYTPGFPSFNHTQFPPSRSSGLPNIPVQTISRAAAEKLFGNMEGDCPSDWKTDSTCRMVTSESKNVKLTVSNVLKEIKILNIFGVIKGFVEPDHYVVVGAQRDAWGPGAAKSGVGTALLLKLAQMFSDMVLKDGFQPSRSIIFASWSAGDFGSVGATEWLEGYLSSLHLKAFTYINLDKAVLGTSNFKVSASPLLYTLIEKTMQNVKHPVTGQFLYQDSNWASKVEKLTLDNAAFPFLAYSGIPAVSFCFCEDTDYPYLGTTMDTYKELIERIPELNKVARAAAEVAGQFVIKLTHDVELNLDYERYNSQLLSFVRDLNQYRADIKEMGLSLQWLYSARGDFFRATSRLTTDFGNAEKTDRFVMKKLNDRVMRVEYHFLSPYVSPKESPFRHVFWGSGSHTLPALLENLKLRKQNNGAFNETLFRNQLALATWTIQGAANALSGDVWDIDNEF

| hCD71:HSA | Binder |
| --- | --- |
| 32 | B1 |
| 98 | B2 |
| 58 | B3 |
| 900 | B4 |
| 1110 | B5 |
| 1060 | B6 |
| 92 | B7 |
| 58 | B8 |
| 1300 | B9 |
| 36 | B10 |
| 2300 | B11 |
| 48 | B12 |
| 1170 | B13 |
| 16 | B14 |
| 199 | B15 |
| 591 | B16 |
| 403 | B17 |
| 166 | B18 |
| 1480 | B19 |

| hCD71:HSA | Binder |
| --- | --- |
| 520 | B20 |
| 913 | B21 |
| 903 | B22 |
| 1120 | B23 |
| 1810 | B24 |
| 571 | B25 |
| 74 | B26 |
| 626 | B27 |
| 472 | B28 |
| 237 | B29 |
| 1240 | B30 |
| 284 | B31 |
| 206 | B32 |
| 1060 | B33 |
| 1860 | B34 |
| 706 | B35 |
| 891 | B36 |
| 693 | B37 |
| 19 | B38 |

Target: T1, recombinant biotinylated CD71 …
Assay: screening ELISA

| hCD71 | Binder |
| --- | --- |
| 1.67e+06 | B1 |
| 1.04e+06 | B2 |
| 1.09e+06 | B3 |
| 1.98e+06 | B4 |
| 2.44e+06 | B5 |
| 2.54e+06 | B6 |
| 1.88e+06 | B7 |
| 720000 | B8 |
| 4.09e+06 | B9 |
| 3.24e+06 | B10 |
| 3.44e+06 | B11 |
| 1.21e+06 | B12 |
| 2.98e+06 | B13 |
| 659000 | B14 |
| 1.78e+06 | B15 |
| 2.25e+06 | B16 |
| 1.84e+06 | B17 |
| 1.97e+06 | B18 |
| 3.03e+06 | B19 |

| hCD71 | Binder |
| --- | --- |
| 3.59e+06 | B20 |
| 3.61e+06 | B21 |
| 2.62e+06 | B22 |
| 1.57e+06 | B23 |
| 4.07e+06 | B24 |
| 2.31e+06 | B25 |
| 2.51e+06 | B26 |
| 1.6e+06 | B27 |
| 2.95e+06 | B28 |
| 2.4e+06 | B29 |
| 3.34e+06 | B30 |
| 2.74e+06 | B31 |
| 3.85e+06 | B32 |
| 2.27e+06 | B33 |
| 4.38e+06 | B34 |
| 3.88e+06 | B35 |
| 3.38e+06 | B36 |
| 2.11e+06 | B37 |
| 537000 | B38 |
